Earlier results in patent US20030003565A1, “Functional lentiviral vector from an MLV-based backbone” (priority 2000, published 2003).

Conditions: patients with septic shock, constant infusion for three days; 44% with placebo infusions

B1: IL-1R: recombinant IL-1R given as constant infusion to patients with septic shock (protein, UniProt P14778 18-336, looked up)
extracellular domain: LEADKCKEREEKIILVSSANEIDVRPCPLNPNEHKGTITWYKDDSKTPVSTEQASRIHQHKEKLWFVPAKVEDSGHYYCVVRNSSYCLRIKISAKFVENEPNLCYNAQAIFKQKLPVAGDGGLVCPYMEFFKNENNELPKLQWYKDCKPLLLDNIHFSGVKDRLIVMNVAEKHRGNYTCHASYTYLGKQYPITRVIEFITLEENKPTRPVIVSPANETMEVDLGSQIQLICNVTGQLSDIAYWKWNGSVIDEDDPVLGEDYYSVENPANKRRSTLITVLNISEIESRFYKHPFTCFAKNTHGIDAAYIQLIYPVTNFQK
modifications: extracellular domain
- 28 day mortality: 16%
